The text below walks through data of US20240059758A1 (CORAT THERAPEUTICS, published 2024).

The target in test [1] is T1, S1-His (SARS-CoV-2, UniProt P0DTC2 16-685). Briefly: BLI, antibody on FAB2G capture sensor, S1-His in solution. A general note: Biolayer interferometry detects binding as a change in optical thickness at a sensor tip.
Test [2] concerns the target T2, SARS-CoV-2 glycoprotein S (spike) on infectious virus (SARS-CoV-2, UniProt P0DTC2 14-1273). The experiment in a line: cell-based or functional assay.
In test [3] the target is T1, S1-His. The experiment in a line: BLI, antibody on Protein A sensor, S1-His in solution.
Test [4] has as its target receptor binding domain (RBD) of the S1-subunit of SARS-CoV-2 glycoprotein S (SARS-CoV-2, UniProt P0DTC2 319-541). The experiment in a line: titration ELISA, IgG on RBD. (ELISA stands for enzyme-linked immunosorbent assay.)
Test [5] deals with T2, SARS-CoV-2 glycoprotein S (spike) on …. Briefly: cell-based or functional assay. The source holds these as a separate data set.
Test [6] addresses RBD-mFc (Sino Biologicals) (SARS-CoV-2, UniProt P0DTC2 319-541). The experiment in a line: BLI, RBD-mFc on anti-mouse Fc capture sensor, Fab in solution.
Test [7] concerns the target S1-subunit of the SARS-CoV-2 glycoprotein S (SARS-CoV-2, UniProt P0DTC2 16-685). The experiment in a line: titration ELISA, IgG on S1.

B1: YU537-H11 (IgG) (antibody, V domains shown)
VH: EVQLLESGGGLIQPGGSLRLSCAASGLTVSSNYMSWVRQAPGKGLEWVSVIYSGGSTYYADSVKGRFTISRDNSKNALYLQMNSLRAEDTAVYYCARGESGSPYGMDVWGQGTLVTVSS
VL: QSVLTQPPSVSAAPGQKVTISCSGSSSNIGNNYVSWYQQLPGTAPKLLIYDTNKRPSGIPDRFSGSKSGTSATLGITGLQTGDEADYYCATWDSSLSVGVFGGGTKLTVL
Take B1: the Kd in the test with S1-His [1] worked out at 11.7 nM; with S1-His [3] it was 32.5 nM. Moreover, the “Virus neutralization (24-well titration) TCID50 (IgG)” value in test [2] is 0.47 nM. In addition, the “Virus neutralization (96-well titration) TCID50 (IgG)” value in test [2] was 0.27 nM. In test [4], it took 1.4 nM to reach a half-maximal effect (EC50). Moreover, the Neutralization in test [5] was determined as 0.47 nM.

B2: YU536-D04 (IgG) (antibody, V domains shown)
VH: QVQLVQSGGGLVQPGGSLRLSCAASGLTVSSNYMSWVRQAPGKGLEWVSVIYSGGSTYYADSVKGRFIISRDNSKNTLYLQMNSLRAEDTAVYYCARDLVVMGLDVWGKGTLVTVSS
VL: DIQLTQSPSSLSASVGDRVTITCRASQGISSYLAWYQQKPGKAPKLLIYAASTLQSGVPSRFSGSGSGTDFTLTISSLQPEDFATYYCQQLNSYPITFGQGTKLEIK
Take B2: binding with S1-His [1] was characterised by a dissociation constant (Kd) of 5.49 nM. Also, in test [2], the “Virus neutralization (24-well titration) TCID50 (IgG)” value came to 0.4 nM and the “Virus neutralization (96-well titration) TCID50 (IgG)” value was determined as 0.2 nM. The molecule also came in with a Kd in the test with S1-His [3] of 23 nM. In test [4], the EC50 worked out at 1.1 nM. In addition, the Neutralization in test [5] was 0.4 nM.

B3: YU536-D04 (Fab) (Fab, V domains shown)
VH: QVQLVQSGGGLVQPGGSLRLSCAASGLTVSSNYMSWVRQAPGKGLEWVSVIYSGGSTYYADSVKGRFIISRDNSKNTLYLQMNSLRAEDTAVYYCARDLVVMGLDVWGKGTLVTVSS
VL: DIQLTQSPSSLSASVGDRVTITCRASQGISSYLAWYQQKPGKAPKLLIYAASTLQSGVPSRFSGSGSGTDFTLTISSLQPEDFATYYCQQLNSYPITFGQGTKLEIK
As to B3, the Kd in test [6] was 17.5 nM.

B4: STE90-C11 (IgG) (antibody, V domains shown)
VH: QVQLVESGGGLVQPGGSLRLSCAASGLTVSSNYMSWVRQAPGKGLEWVSVIYSGGSTYYADSVKGRFTISRDDSKNTLYLQMNSLRAEDTAVYYCARDVADAFDIWGQGTMVTVSS
VL: DIVMTQSPSFLSASVGDRVTITCRASQGISSYLAWYQQKPGKAPKLLIYAASTLQSGVPSRFSGSGSGTEFTLTISSLQPEDFATYYCQQLNSYPPFTFGPGTKVDIK
Consider B4, for which the results for the Kd in the test with S1-His [1] and with S1-His [3] were 1.56 nM and 6.53 nM, respectively. The “Virus neutralization (24-well titration) TCID50 (IgG)” value in test [2] worked out at 0.56 nM. Also, the “Virus neutralization (96-well titration) TCID50 (IgG)” value in test [2] stood at 0.91 nM. For the same molecule, the 50% effective concentration (EC50) in test [4] and in test [7] was 0.3 nM each time. The same molecule returned a Neutralization in test [5] of 0.56 nM.

Broadly, the Kd is the free concentration of one partner at which half of the binding sites on the other are occupied at equilibrium, for simple one-to-one binding. Usually EC50 stands for the concentration that produces a half-maximal response. A low value points to an effect from little substance.
